The assay has as its target T1, TRAF2 (UniProt Q12933 1-501, limits assumed).
T1 sequence (looked up): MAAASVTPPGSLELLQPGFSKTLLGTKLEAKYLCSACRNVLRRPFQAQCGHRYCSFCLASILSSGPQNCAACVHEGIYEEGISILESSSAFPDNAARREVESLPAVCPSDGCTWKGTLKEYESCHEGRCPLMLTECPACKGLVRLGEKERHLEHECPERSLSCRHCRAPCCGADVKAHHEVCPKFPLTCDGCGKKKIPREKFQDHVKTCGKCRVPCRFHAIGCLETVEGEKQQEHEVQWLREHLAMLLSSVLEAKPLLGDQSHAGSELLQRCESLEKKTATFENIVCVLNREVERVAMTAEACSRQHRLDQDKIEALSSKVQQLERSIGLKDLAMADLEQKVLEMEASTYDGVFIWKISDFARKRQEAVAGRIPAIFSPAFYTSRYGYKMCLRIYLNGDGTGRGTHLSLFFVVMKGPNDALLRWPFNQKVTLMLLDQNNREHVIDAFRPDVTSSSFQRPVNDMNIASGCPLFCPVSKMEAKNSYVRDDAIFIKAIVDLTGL
The experiment in a line: TRAF2 immunoprecipitation from transfected HEK293 cells, anti-Myc immunoblot (FIG. 9A). How it is done: To understand how DX2 compromises the apoptotic activity of TNF-a signaling, we evaluated the ability of DX2 to compete with AIMP2 for the interaction with TRAF2 and to affect NF-kB-dependent transcriptional activity. For the co-immunoprecipitation assay, HEK293 cells were transfected with 0, 1 or 2 μg of Myc-tagged DX2 or AIMP2 expression plasmid (FIG. 9A). The expression of endogenous (Endo) and exogenous (Exo) AIMP2 and DX2 was confirmed by immunoblotting of whole cell lysates (WCL) with anti-AIMP2 antibody. TRAF2 was immunoprecipitated with its specific antibody and AIMP2 or DX2 bound to TRAF2 were detected with anti-Myc antibody.
In general terms: In western blotting, separated proteins are transferred to a membrane and probed.

B1: Myc-tagged DX2 (other)
chain: MPMYQVKPYHGGGAPLRVELPTCMYRLPNVHGRSYGPAPGAGHVQDYGALKDIVINANPASPPLSLLVLHRLLCEHFRVLSTVHTHSSVKSVPENLLKCFGEQNKKQPRQDYQLGFTLIWKNVPKTQMKFSIQTMCPIEGEGNIARFLFSLFGQKHNAVNATLIDSWVDIAIFQLKEGSSKEKAAVFRSMNSALGKSPWLAGNELTVADVVLWSVLQQIGGCSVTVPANVQRWMRSCENLAPFNTALKLLK
notes: also called Myc-DX2; not shown: Myc tag
For the molecule B1, the binding result is “binds”.

These data come from patent publication US20250281573A1 (GENEROATH, published 2025).
